Experimental data reported in publication PMC8098473, “Structural basis of chitin utilization by a GH20 β-N-acetylglucosaminidase from Vibrio campbellii strain ATCC BAA-1116” (Acta Crystallographica. Section D, Structural Biology, 2021).

B1: VhGlcNAcase (Vibrio harveyi) (protein)
chain: MGGSEYRVDLVVLSEQKQNCRFGLTFHNLSDQDLNSWGLTFAFDRYILPDSVSNGQLTQIGSFCTLKPEGIVLAANHHYYCEFSIGSNPFRYYSDGFNEAMIDFVVDGQPQRAQVDVTPIVLASPYRERSDIPASLTHAQPLLPKPNHIEVSDHSFTFDEQAGVAIYTDLANSAKAWLLEELQRIHQFTLSSSNSGKIIFKSNPTLDEGAYKLKVSEESIKIEAGSSSGFTHACATLLQLLKRDEATKTMEAVCCSIIDSPRFRYRGMMLDCARHFHSVEQVKRLINLLAHYKLNTFHWHLTDDEGWRVEIKSLPQLTEIGAWRGIDETIEPQYTHLSQRYGGFYTQEEIRDVIAFAEQRGITIIPEIDVPGHCRAAIKSLPHLLIEAEDTTEYRSIQHYNDNVINPALPGSYEFIDKVLEEIAALFPAPYVHIGADEVPNGVWSKSPACQALMEQLGYTDYKELQGHFLRHAEDKLRKLGKRMLGWEEAQHGNKVSKDTVIYSWLSEEAALNCARQGFDVVLQPAQTTYLDMTQDYAPEEPGVDWANPLPLEKAYNYEPLAEVPADDPIRKRIWGIQTALWCEIINNPSRMDYMIFPRLTAMAEACWTEKQHRDWTDYLSRLKGHLPLLDLQGVNYRKPWK

System: CC(=O)N[C@H]1[C@H](Oc2ccc([N+](=O)[O-])cc2)O[C@H](CO)[C@@H](O)[C@@H]1O
Test: purified protein
Format: biochemical, Vibrio harveyi
Settings: 100 mM sodium phosphate pH 7.0, 37°C, 10 min, 0–500 µM substrate

Molecule | Km [µM] | kcat [s⁻¹]
VhGlcNAcase (Vibrio harveyi; E438A) | 128 ± 16 | 0.11 ± 0.005
VhGlcNAcase (Vibrio harveyi; D437N) | 339 ± 47 | 0.02 ± 0.001
VhGlcNAcase (Vibrio harveyi; E584A) | 178 ± 20 | 18 ± 0.7
VhGlcNAcase (Vibrio harveyi; E438Q) | 120 ± 13 | 0.13 ± 0.005
VhGlcNAcase (Vibrio harveyi; D532A) | 153 ± 9 | 1.6 ± 0.03
VhGlcNAcase (Vibrio harveyi; D303A) | 302 ± 28 | 1.4 ± 0.07
VhGlcNAcase (Vibrio harveyi; H373A) | 307 ± 31 | 1.1 ± 0.06
VhGlcNAcase (Vibrio harveyi; D303N) | 325 ± 30 | 1.8 ± 0.08

Substrate: CC(=O)N[C@H]1[C@H](Oc2ccc([N+](=O)[O-])cc2)O[C@H](CO)[C@@H](O)[C@@H]1O
Test: purified protein
Settings: 100 mM sodium phosphate pH 7.0, 37°C, 10 min, 0–500 µM substrate
Remark: another data set of the same source

Molecule | Km [µM]
B1 | 92 ± 6

Biological target: T1, VhGlcNAcase (Vibrio harveyi, UniProt D9ISE0, D437A)
T1 construct: full-length nag2 (residues 1-642) plus C-terminal RSRS-His6 (10 extra residues), pQE-60, E. coli M15 (pREP4); 74 kDa expected, 76 kDa by SEC; monomer; EC 3.2.1.52
Test: colorimetric 4-nitrophenol release at […] nm, Michaelis-Menten fit
Format: biochemical
Settings: 100 mM sodium phosphate pH 7.0, 37°C, 10 min, 0–500 µM substrate

Molecule | Km [µM]
CC(=O)N[C@H]1[C@H](Oc2ccc([N+](=O)[O-])cc2)O[C@H](CO)[C@@H](O)[C@@H]1O [pNP-GlcNAc, 4-nitrophenyl N-acetyl-β-D-glucosaminide] | 390 ± 32
